Assay results reported in patent US20050032221A1, “Dominant negative variants of methionine aminopeptidase 2 (MetAP2) and clinical uses thereof” (priority 2001, published 2005).

Experiments:
yeast map1Δ strain = test: Yeast growth assay, map1Δ, expression under GAL1 promoter; assay type: cell-based, yeast (S. cerevisiae); settings: galactose plates, 4 days at 30° C.
Procedure: A haploid yeast map1Δ strain was transformed to leucine prototrophy with p425GAL1/MAP2 wild-type (WT), p425GAL1/map2 (H174A), or p425GAL1 vector alone (V). Each strain was grown to mid-logarithmic phase at 30° C. in minimal synthetic raffinose medium lacking leucine. Approximately 2×10^5 cells (ABS600) were then streaked onto minimal synthetic plates lacking leucine and supplemented with (A) glucose or (B) galactose. Plates were incubated for 4 days at 30° C.
A haploid yeast map1Δ strain was transformed to leucine prototrophy with p425GAL1/MAP2 wild-type (WT), p425GAL1/map2 ([…]), p425GAL1/map2 (Δ2-57/H174A) or p425GAL1 vector alone (V). Each strain was grown to mid-logarithmic phase at 30° C. in minimal synthetic raffinose medium lacking leucine. […]
For relative growth comparison, strains were grown to mid-logarithmic phase in 5 ml of 2% raffinose minimal media lacking leucine and ˜2×10^5 cells (ABS600) were streaked onto SD/Leu^− or SG/Leu^− plates, then incubated for 4 days at 30° C. For quantitative comparison, a growth curve was obtained (FIG. 4). […] The ABS600 of each 1 mL culture was measured and diluted to an ABS600 of 0.2 in 5 mL of SG/Leu^−. Each 5 mL culture was then grown aerobically at 30° C. and the ABS600 was measured in triplicate at one-hour intervals.

peptide substrate (MGMM) = test: MetAP activity assay of immunopurified HA-tagged yeast MetAP2 with Met-Gly-Met-Met; assay type: biochemical; settings: immunopurified HA-tagged enzyme from map1Δ; 2 mM Met-Gly-Met-Met
Procedure: […]. Approximately 2 μg of purified wild-type MetAP2 (WT) and MetAP2 (H174A) was separated on a 10% SDS-PAGE gel and visualized with coomassie blue staining. Specific activity for the wild-type MetAP2 was 11±0.5 U/mg.
The purification of HA-tagged wild-type and mutant yeast MetAP2 from a yeast map1Δ strain (Klinkenberg et al., Arch. Biochem. Biophys. 347:193-200, 1997) was performed as previously described (Li and Chang, 1995) with slight modifications. A 1-liter yeast culture was grown aerobically at 30° C. in SG/Leu^− medium. Cells were collected at an OD600˜1-2 by centrifugation at 1500×g for 5 min. The pellet was rinsed with buffer XL (10 mM Hepes, pH 7.4; 1.5 mM MgCl2, 10% Glycerol [v/v]) plus 100 mM NaCl and fresh protease inhibitors (1 μg/ml aprotinin, 1 μg/ml leupeptin, 0.7 μg/ml pepstatin A, 1 mM phenylmethylsulfonyl fluoride). Cells were disrupted by vortexing (5 cycles of 1 min vortexing, 1 min on ice) with 0.5-mm acid-washed glass beads (Biospec Products, Inc.,). The lysate was then cleared at 10,000×g for 20 min at 4° C. Cleared lysate was applied to a Protein-Sepharose G column (Pharmacia) previously rinsed and pre-equilibrated with buffer XL and an anti-hemagglutinin epitope ([…]; SEQ ID NO:23) monoclonal antibody (BabCO). After loading, the column was washed with buffer XL until OD280<0.01. […]

B1: wild-type MetAP2: wild-type yeast MetAP2 with N-terminal hemagglutinin tag (SEQ ID NO:14) (protein, listed as Saccharomyces sp.)
chain: MTDAEIENSPASDLKELNLENEGVEQQDQAKADESDPVESKKKKNKKKKKKKSNVKKIELLFPDGKYPEGAWMDYHQDFNLQRTTDEESRYLKRDLERAEHWNDVRKGAEIHRRVRRAIKDRIVPGMKLMDIADMIENTTRKYTGAENLLAMEDPKSQGIGFPTGLSLNHCAAHFTPNAGDKTVLKYEDVMKVDYGVQVNGNIIDSAFTVSFDPQYDNLLAAVKDATYTGIKEAGIDVRLTDIGEAIQEVMESYEVEINGETYQVKPCRNLCGHSIAPYRIHGGKSVPIVKNGDTTKMEEGEHFAIETFGSTGRGYVTAGGEVSHYARSAEDHQVMPTLDSAKNLLKTIDRNFGTLPFCRRYLDRLGQEKYLFALNNLVRHGLVQDYPPLNDIPGSYTAQFEHTILLHAHKKEVVSKGDDYGKMRFQMASSLGIILL
modifications: N-terminal HA tag; Yeast MetAP2
**Q.** B1 was tested. Which “colony size / growth relative to map1Δ with vector alone” value (yeast map1Δ strain) did it give?
**A.** Its value is “largest observed”.

**Q.** What about the Specific activity (peptide substrate (MGMM)) of the same molecule?
**A.** The Specific activity was 11±0.5 U/mg.
